# Measurements taken from the nanobody polyreactivity screen of Harvey et al. (2022).
# Assay: yeast display, Sf9 membrane polyspecificity reagent, FACS + sequencing; frameworks hold sequencing errors
# Method in brief: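 After 36–48 hours of galactose induction, yeast (Saccharomyces cerevisiae BJ5465) displaying a synthetic nanobody library were stained at 4 °C for 1 hour with 10% biotinylated, detergent-solubilized Sf9 membrane reagent. Streptavidin microbeads enriched the stained cells before FACS sorting into low and high (top ~1%) gates on anti-HA and streptavidin fluorescence. Each clone's polyreactivity label reflects its gate of origin.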
row,Sequence,polyreactivity (PSR sort gate)
1,QVQLVESGGGLVQAGGSLRLSCAASGRTFPYNAMGWYRTAPGKERELVAAISSGGSTNYADSVKGRFTISRDNAKNTVYLQMNSLKPEDTAVYYCAVTGWPRYTWYSYGYWGQGTQVTVSS,low polyreactivity
2,QVQLVESGGGLVQAGGSLRLSCAASGRTFPYNDMGWYRQAPGKERQLVAGISLSGGSTFYADSVKGRFTISRDNAKKTVYLQRNSLKAEDTAVYYCNAPGGRYVWTDDYDYWGQGTQVTVSS,high polyreactivity
3,QVQLVESGGGLVQAGGSLRLSCAASGRTFPYYAMGWSRQAPGKERELVAAITRGGNTNYADSVKGRFTISRDNAKNTVYLQMNSLKPEDTAVYYCAALVRAGPRRGTIYDYWGQGTQVTVSS,high polyreactivity
4,QVQLVESGGGLVQAGGSLRLSCAASGRTFPYYAMGWYRQAPGKERELVAAISSSGGSTYYADSVKARFTISGDNAKNTVYLQMNSLKPEDTAVYDCTRYSRLYLTDDDYWGQGTQVTVSS,high polyreactivity
5,QVQLVESGGGLVQAGGSLRLSCAASGRTFPYYTMGWYRQAPGKERELVAAISSSGGSTYYADSVKGRFTISRDNAKNTVYLQMNSLKPEDTAVYYCNAGYRWTHFGSWGQGTQVTVSS,low polyreactivity
6,QVQLVESGGGLVQAGGSLRLSCAASGRTFQDNAMGWYRQAPGKEREFVAAISWSGDSTYYADSVKGRFTISRDNAKNTVYLQMNSLKPEDTAVYYCAASRVIPSYPYYKYDYWGQGTQVTVSS,low polyreactivity
7,QVQLVESGGGLVQAGGSLRLSCAASGRTFQDNAMGWYRQAPGKERELVAAIRDNGGSTYYADSVKGRFTISRDNAKNTVYLQMNSLKPEDTAVYYCAADQGTGSYDYWGQGTQVTVSS,low polyreactivity
8,QVQLVESGGGLVQAGGSLRLSCAASGRTFQDNAMGWYRQAPGKERELVAAISWRGGSTNYADSVKGRFTISRDNAKNTVYLQMNSLKPEDTAVYYCAKGIRRWYGGSDYWGQGTQVTVSS,low polyreactivity
9,QVQLVESGGGLVQAGGSLRLSCAASGRTFQEYAMGWYRQAPGKERELVADISDGGSTNYADSVKGRFTISRDNAKNTVYLLMKSLKPEDTAGYYCAAARPGWRVGYDYWGQGTQVTVSS,low polyreactivity
10,QVQLVESGGGLVQAGGSLRLSCAASGRTFQFYTMGWYRQAPGKERELVAVITVSSASTFYADSVKGRFTISRDNAKNTVYLQMNSLKPEDTAVYYCAAGLVLNVGMDSWGQGTQVTVSS,low polyreactivity
11,QVQLVESGGGLVQAGGSLRLSCAASGRTFQGNVMGWYRQAPGKERELVAAISRSGSRTYYADSVKGRFTISRDNAKNTVYLQMNSLKPEDTAVYYCNALKSKRRQVIWYDYWGQGTQVTVSS,high polyreactivity
12,QVQLVESGGGLVQAGGSLRLSCAASGRTFQKNTMGWYRQARGKEMQLVAAIDFSATTTYYADSVKGRFTISRDNAKNTVYLQMNSLKPEATAVYYCAARWSYPRWELDYWGQGTQVTVSS,high polyreactivity
13,QVQLVESGGGLVQAGGSLRLSCAASGRTFQLNAMGWYRQAPGKEREVVAAISTRGGSTYYADSVKGRFTISRDNAKNTVYLQMHRLKPEDTAVYYCAKDPSFTRGYKEGGGYDYWGQGTQVTVSS,high polyreactivity
14,QVQLVESGGGLVQAGGSLRLSCAASGRTFQRYAMGWYRQAPGKERELVAAITSRGGSTYYADSVKGRFTISRDNAKNTVYLQMNSLKPEDTAVYYCNARSRRTHSEPQSEMDYWGQGTQVTVSS,high polyreactivity
15,QVQLVESGGGLVQAGGSLRLSCAASGRTFQRYTMGWYRQAPGKERELVASISRSGGSTYYADSVKGRFTISRDNAKNTVYLQMNSLKPEDTAVYYCATRSLFWNRNHYRVSSPVLFDYWGQGTQVTVSS,high polyreactivity
16,QVQLVESGGGLVQAGGSLRLSCAASGRTFQTNDMGLYRKAPGKERELVAAISRRGGSTYYADSVKGRFTISRDNAKNTVYLQMNSLKPEDTAVYYCAATRLSRYDYWGQGTQVTVSS,low polyreactivity

row,Sequence,polyreactivity (PSR sort gate)
1,QVQLVESGGGLVQAGGSLRLSCAASGRTFQVNAMGWYRQAPGKERELVAAISASDGSTYADSVKGRFTISRDNAKNTVYLQMNSLKPEDTAVYYCNKAAYGGHRTSEQVGWVYLYDYWGQGTQVTVSS,low polyreactivity
2,QVQLVESGGGLVQAGGSLRLSCAASGRTFQVNSMGWYRQAPGKERELVAALTKRGGSTSYADSVKGRFTFSRDNANNTFYLQMNSLIPEDTAVYYCNVDYWGQGTQVTLSS,low polyreactivity
3,QVQLVESGGGLVQAGGSLRLSCAASGRTFQVNTMGWYRQAPGKERELVAAISSAGRTYYADSVKGRFTISRDNAQNTVYLQMNSLKPEDTAVYYCAAAWSYSYWKARYGYWGQGTQVTVSS,high polyreactivity
4,QVQLVESGGGLVQAGGSLRLSCAASGRTFQVYTMGWYRQAPGKERELVAAISRSGGSTYYADSVKGRFTISRDNAKNTVYLQMNSLKPEDTAVYYCAAVPGWLTSRYYYWGQGTQVTVSS,high polyreactivity
5,QVQLVESGGGLVQAGGSLRLSCAASGRTFQWYAMGWYRQAPGKERELVAAISWGGGRTYYADSVKGRFTISRDNAKNTVYLQMNSLKPEDTAVYYCAASYRKLPDKKRYGYWGQGTQVTVSS,high polyreactivity
6,QVQLVESGGGLVQAGGSLRLSCAASGRTFQWYAMGWYRQAPGKERELVAAISYNGDSTYYADSVKGRFTISRDNAKNTVYLQMNSLKPEDTAVYYCAATPYPYYGYDYWGQGTQVTVSS,high polyreactivity
7,QVQLVESGGGLVQAGGSLRLSCAASGRTFQYNAMGWYRQAPGKERELVAVISRGGRTNYADSVKGRFTISRDNAKNTVYLQMNSLKPEDTAVYYCAADWYTPQGVGLDYWGQGTQVTVSS,low polyreactivity
8,QVQLVESGGGLVQAGGSLRLSCAASGRTFRAYALGWYRQAPGKERELVAAITSGGSTKYADSVKGRFTISRDNAKNTVYLQMNSLKPEDTAVYYCNARVRVRLGRNWSSYYYWGQGTQVTVSS,high polyreactivity
9,QVQLVESGGGLVQAGGSLRLSCAASGRTFRAYVMGWYRQAPGKERELVAAISGRGGSTYYADSVKGRFTSSRDNAKNTVYLQMNSLKPEDTAVYYCNAVQLSQRPHDYWGQGTQVTVSS,high polyreactivity
10,QVQLVESGGGLVQAGGSLRLSCAASGRTFRENAMGSSRPAPGKERELVAAIRRSGGRTYYADSVKGRFTISRDNAKNTVYLQMHSLKPEDTAVSDCIAVADGYAFRRPYVTYYYWGQGTQVTVSS,low polyreactivity
11,QVQLVESGGGLVQAGGSLRLSCAASGRTFRENAMGWYRPAPGKERELVAAISWRAGSTYYADSVKGRFTISRDNAKNTVYLQMNSLKPEDTAVYYCAAKYTVSFYLWGTFNYWGQGTQVTVSS,high polyreactivity
12,QVQLVESGGGLVQAGGSLRLSCAASGRTFRFNAMGWYRQAPGKERELVAAISFRGGSTYYADSVKGRFTISRDNAKNTVYLQMNSLKPEHTAVYYCAARARTGTYRDMYYWGQGTQVTVSS,high polyreactivity
13,QVQLVESGGGLVQAGGSLRLSCAASGRTFRFYAMGWSRQAPGKERELGAAITGSGGSTYYADSVKGRFTISRDNAKNTVYLQMNCLKPEDTAVYYCAASRWREYHASKMDYWGQGTQVTVSS,low polyreactivity
14,QVQLVESGGGLVQAGGSLRLSCAASGRTFRGNVMGWYRQAPGKEREFVAAITKSDGSTYYADSVKGRFTISRDIAKNTVYLQMNSLNPEDTAVDYCAARTARTGWPWFRFDYWGQGTQVTVSS,low polyreactivity
15,QVQLVESGGGLVQAGGSLRLSCAASGRTFRGNVMGWYRQATGKEREFVAAITRSGSNTYYADSVKGRFTISRDYAKTTVYLQMNSLKPEDTAVYDCAKSVLLGYKRHDSWGQGTQVTVSS,high polyreactivity
